In publication PMC3777854 (Journal of clinical pharmacology, 2013):
Entries after “also recorded” stand apart in the source; their conditions may differ. Marks after values point to notes of the source that are not given here. Square brackets hold non-standard residues; d marks the D form. Peptide text beside a SMILES is read from it. * marks the point of attachment. Dolaproine = CO[C@@H]([C@@H]1CCCN1)[C@@H](C)C(=O)O; Dil = CC[C@H](C)[C@H](NC)[C@@H](CC(=O)O)OC; X1 = C[C@@H](N*)[C@@H](O)c1ccccc1; NMeV = CN[C@H](C(=O)O)C(C)C

How the values were obtained:
[1] = Safety assessments: adverse events and laboratory abnormalities; format: in vivo, human
[2] = system: CYP3A; test: Effect of rifampin on brentuximab vedotin; format: in vivo, human; conditions: for MMAE Tmax: median (range)
[3] = system: relapsed/refractory systemic ALCL; conditions: 1.8 mg/kg IV every 3 weeks for up to 16 cycles; cited from earlier work
[4] = system: CYP3A; test: Effect of brentuximab vedotin on midazolam PK; conditions: brentuximab vedotin 1.8 mg/kg; midazolam as probe substrate
[5] = system: CYP3A; test: Effect of ketoconazole on brentuximab vedotin; format: in vivo, human; conditions: for ADC Cmax: serum; for ADC Cmax / MMAE Tmax / MMAE Cmax: n=16; for MMAE Tmax: median (range)
[6] = system: antitherapeutic antibodies (ATA); test: Antitherapeutic antibodies; format: in vivo, human
[7] = system: CYP3A; conditions: not of this paper; cited from earlier work
[8] = on a mass basis; cited from earlier work
[9] = Excretion of MMAE in urine and feces; format: in vivo, human

## brentuximab vedotin: ADC directed to human CD30: MMAE conjugated to the anti-CD30 antibody cAC10 through a protease-cleavable linker
[1]; Ket arm, both cycles (n = 19)
  Adverse events: Any event: 19 (100) n (%)
  Adverse events: Diarrhea: 6 (32) n (%)
  Adverse events: Fatigue: 8 (42) n (%)
  Adverse events: Headache: 4 (21) n (%)
  Adverse events: Nausea: 9 (47) n (%)
  Adverse events: Neutropenia: 3 (16) n (%)
  Adverse events: Pruritis: 4 (21) n (%)
  Adverse events: Pyrexia: 7 (37) n (%)
  Adverse events: Vomiting: 6 (32) n (%)
[1]; Ket arm, post-ket (N = 19)
  Adverse events: Any event: 16 (84) n (%)
  Adverse events: Diarrhea: 6 (32) n (%)
  Adverse events: Fatigue: 5 (26) n (%)
  Adverse events: Headache: 4 (21) n (%)
  Adverse events: Nausea: 5 (26) n (%)
  Adverse events: Neutropenia: 3 (16) n (%)
  Adverse events: Pruritis: 3 (16) n (%)
  Adverse events: Pyrexia: 2 (11) n (%)
  Adverse events: Vomiting: 6 (32) n (%)
[1]; Ket arm, pre-ket (N = 19)
  Adverse events: Any event: 16 (84) n (%)
  Adverse events: Diarrhea: 1 (5) n (%)
  Adverse events: Fatigue: 4 (21) n (%)
  Adverse events: Headache: 0 n (%)
  Adverse events: Nausea: 5 (26) n (%)
  Adverse events: Neutropenia: 0 n (%)
  Adverse events: Pruritis: 1 (5) n (%)
  Adverse events: Pyrexia: 6 (32) n (%)
  Adverse events: Vomiting: 3 (16) n (%)
[1]; Mid arm, both cycles (n = 16)
  Adverse events: Any event: 14 (88) n (%)
  Adverse events: Diarrhea: 3 (19) n (%)
  Adverse events: Fatigue: 3 (19) n (%)
  Adverse events: Headache: 4 (25) n (%)
  Adverse events: Nausea: 2 (13) n (%)
  Adverse events: Neutropenia: 1 (6) n (%)
  Adverse events: Pruritis: 1 (6) n (%)
  Adverse events: Pyrexia: 0 n (%)
  Adverse events: Vomiting: 2 (13) n (%)
[1]; Rif arm, Cycle 1 (N = 21)
  Adverse events: Any event: 18 (86) n (%)
  Adverse events: Diarrhea: 2 (10) n (%)
  Adverse events: Fatigue: 1 (5) n (%)
  Adverse events: Headache: 3 (14) n (%)
  Adverse events: Nausea: 6 (29) n (%)
  Adverse events: Neutropenia: 6 (29) n (%)
  Adverse events: Pruritis: 3 (14) n (%)
  Adverse events: Pyrexia: 6 (29) n (%)
  Adverse events: Vomiting: 2 (10) n (%)
[1]; Rif arm, Cycle 2 (N = 20)
  Adverse events: Any event: 17 (85) n (%)
  Adverse events: Diarrhea: 3 (15) n (%)
  Adverse events: Fatigue: 4 (20) n (%)
  Adverse events: Headache: 2 (10) n (%)
  Adverse events: Nausea: 2 (10) n (%)
  Adverse events: Neutropenia: 5 (25) n (%)
  Adverse events: Pruritis: 2 (10) n (%)
  Adverse events: Pyrexia: 0 n (%)
  Adverse events: Vomiting: 1 (5) n (%)
[1]; Rif arm, both cycles (n = 21)
  Adverse events: Any event: 20 (95) n (%)
  Adverse events: Diarrhea: 4 (19) n (%)
  Adverse events: Fatigue: 5 (24) n (%)
  Adverse events: Headache: 5 (24) n (%)
  Adverse events: Nausea: 6 (29) n (%)
  Adverse events: Neutropenia: 7 (33) n (%)
  Adverse events: Pruritis: 4 (19) n (%)
  Adverse events: Pyrexia: 6 (29) n (%)
  Adverse events: Vomiting: 2 (10 n (%)
[1]; Total, both cycles (N = 56)
  Adverse events: Any event: 53 (95) n (%)
  Adverse events: Diarrhea: 13 (23) n (%)
  Adverse events: Fatigue: 16 (29) n (%)
  Adverse events: Headache: 13 (23) n (%)
  Adverse events: Nausea: 17 (30) n (%)
  Adverse events: Neutropenia: 11 (20) n (%)
  Adverse events: Pruritis: 9 (16) n (%)
  Adverse events: Pyrexia: 13 (23) n (%)
  Adverse events: Vomiting: 10 (18) n (%)
[1]; all patients (N = 56), 2 treatment cycles
  treatment-emergent peripheral neuropathy: 18%
[1]; all patients, 5 patients
  low hemoglobin, change from Grade 1 or 2 to ≥ Grade 3: 9%
  low lymphocyte counts, change from Grade 1 or 2 to ≥ Grade 3: 9%
  low platelet counts, change from Grade 1 or 2 to ≥ Grade 3: 9%
[1]; all patients, 6 patients
  elevated ALT, change from Grade 1 or 2 to ≥ Grade 3: 11%
[1]; all patients, 7 patients
  low white blood cell count, change from Grade 1 or 2 to ≥ Grade 3: 13%
[1]; ketoconazole arm, after ketoconazole, 1 patient
  peripheral neuropathy events: 5%
[1]; ketoconazole arm, after ketoconazole, 2 patients
  elevated AST (adverse event): 11%
[1]; ketoconazole arm, before ketoconazole dosing, 4 patients
  incidence of adverse events ≥ Grade 3: 21%
[1]; ketoconazole arm, before ketoconazole, 1 patient
  elevated AST (adverse event): 5%
[1]; ketoconazole arm, before ketoconazole, 2 patients
  peripheral neuropathy events: 11%
[1]; ketoconazole arm, both before and after ketoconazole, 1 patient
  elevated ALT (adverse event): 5%
[2]; brentuximab vedotin 1.8 mg/kg alone, geometric mean (%CV), n=11
  ADC t1/2: 5.87 (66) d
[2]; brentuximab vedotin 1.8 mg/kg alone, serum, geometric mean (%CV), n=11
  ADC Cmax: 36.74 (34) μg/mL
[3]
  objective response rate: 86%
[4]
  inhibition or induction of CYP3A in humans (conclusion): neither inhibitors nor inducers of CYP3A; also recorded: neither inhibit nor induce CYP3A
[5]; brentuximab vedotin 1.2 mg/kg alone, geometric mean (%CV), n=11
  ADC t1/2: 5.70 (33) d
[5]; brentuximab vedotin 1.2 mg/kg alone, geometric mean (%CV)
  ADC Cmax: 22.57 (23) μg/mL
[5]; brentuximab vedotin 1.2 mg/kg with ketoconazole, geometric mean (%CV)
  ADC Cmax: 22.38 (70) μg/mL
[6]; PK-evaluable patients in the ketoconazole arm
  patients with at least 1 positive postbaseline ATA result: 8 of 16
[6]; PK-evaluable patients in the rifampin arm
  patients with at least 1 positive postbaseline ATA result: Five of 14
[6]; all patients
  patients free of confirmed ATA at baseline but positive at one or both postbaseline timepoints: Eighteen
[6]; with one exception (one patient 3125 prior to second dose)
  titers of all confirmed positive ATA results: ≤ 125

## CC[C@H](C)[C@@H]([C@@H](CC(=O)N1CCC[C@H]1[C@H](OC)[C@@H](C)C(=O)N[C@H](C)[C@@H](O)c1ccccc1)OC)N(C)C(=O)[C@@H](NC(=O)[C@@H](NC)C(C)C)C(C)C [MMAE, monomethyl auristatin E] (H-[NMeV]V[Dil][Dolaproine]-X1)
[7]
  CYP3A induction (in vitro studies): does not induce CYP3A
[8]
  MMAE exposures lower than those of the ADC: ~ 2000 fold
[2]; brentuximab vedotin 1.8 mg/kg IV alone, plasma, geometric mean (%CV), n=14
  MMAE AUC0-∞: 40.06 (53) d·ng/mL
[2]; brentuximab vedotin 1.8 mg/kg alone, geometric mean (%CV), n=14
  MMAE t1/2: 3.71 (19) d
[2]; brentuximab vedotin 1.8 mg/kg alone, n=14
  MMAE Tmax: 3.00 (0.99, 5.01) ^a d
[2]; brentuximab vedotin 1.8 mg/kg alone, plasma, geometric mean (%CV), n=14
  MMAE Cmax: 4.98 (67) ng/mL
[2]; brentuximab vedotin 1.8 mg/kg with rifampin vs alone
  MMAE exposures lower when rifampin was coadministered: ~ 46%
[2]; brentuximab vedotin 1.8 mg/kg with rifampin, geometric mean (%CV), n=14
  MMAE t1/2: 3.66 (17) d
[2]; brentuximab vedotin 1.8 mg/kg with rifampin, n=14
  MMAE Tmax: 1.49 (0.33, 4.02) ^a d
[2]; brentuximab vedotin 1.8 mg/kg with rifampin, plasma, geometric mean (%CV), n=14
  MMAE Cmax: 2.80 (36) ng/mL
[9]; after concentrating the liquid-liquid extracts ten-fold, LC-MS/MS
  number of MMAE metabolites detected in urine and feces: 8
[9]; estimate, metabolites only detected upon 10-fold concentration
  concentration of MMAE in excreta relative to its metabolites: at least 10 fold
[9]; of MMAE received during a brentuximab vedotin 1.8 mg/kg infusion, over a 1-week period, n=8
  MMAE recovered in urine and feces: ~ 23.5%
[9]; over 1 week after brentuximab vedotin 1.8 mg/kg, remainder in urine
  percentage of recovered MMAE excreted in feces, median: 72%
[4]
  inhibition or induction of CYP3A in humans (conclusion): neither inhibitors nor inducers of CYP3A; also recorded: neither an inhibitor nor inducer of CYP3A
[5]; brentuximab vedotin 1.2 mg/kg IV alone, plasma, geometric mean (%CV), n=14
  MMAE AUC0-∞: 26.65 (71) d·ng/mL
[5]; brentuximab vedotin 1.2 mg/kg alone, geometric mean (%CV), n=14
  MMAE t1/2: 3.06 (13) d
[5]; brentuximab vedotin 1.2 mg/kg alone
  MMAE Tmax: 1.97 (0.97, 6.99) ^a d
[5]; brentuximab vedotin 1.2 mg/kg alone, plasma, geometric mean (%CV)
  MMAE Cmax: 4.11 (71) ng/mL
[5]; brentuximab vedotin 1.2 mg/kg with ketoconazole vs alone
  MMAE exposures higher when ketoconazole was coadministered: ~ 34%
[5]; brentuximab vedotin 1.2 mg/kg with ketoconazole, geometric mean (%CV), n=14
  MMAE t1/2: 3.47 (66) d
[5]; brentuximab vedotin 1.2 mg/kg with ketoconazole
  MMAE Tmax: 2.45 (0.22, 4.06) ^a d
[5]; brentuximab vedotin 1.2 mg/kg with ketoconazole, plasma, geometric mean (%CV)
  MMAE Cmax: 5.13 (114) ng/mL
[5]; in Cycle 1, exploratory analysis of the period effect
  potential increase of MMAE AUC0-∞ by coadministration of ketoconazole: ~ 73%
[5]; later cycles, relative to Cycle 1 MMAE levels without ketoconazole
  expected increase in MMAE levels with ketoconazole: ≤ 38%
